Test results published in patent EP4480965A1 (Vect-Horus, dated 2024).
Like-named read-outs stand apart in the source and are kept apart here.

Columns and labels:
[1] = target: T1, mouse transferrin receptor fused to EGFP, expressed on CHO cells (mouse, UniProt Q62351 1-763); assay: flow cytometry, CHO-mTfR-EGFP cells
T1 construct: whole, on cells; also called mTfR; mouse TfR

[2] = target: T2, human transferrin receptor fused to EGFP, expressed on CHO cells (human, UniProt P02786 1-760); assay: flow cytometry, CHO-hTfR-EGFP cells
T2 construct: whole, on cells; also called hTfR; human TfR
T2 sequence (P02786 whole entry, the tested form may be a part): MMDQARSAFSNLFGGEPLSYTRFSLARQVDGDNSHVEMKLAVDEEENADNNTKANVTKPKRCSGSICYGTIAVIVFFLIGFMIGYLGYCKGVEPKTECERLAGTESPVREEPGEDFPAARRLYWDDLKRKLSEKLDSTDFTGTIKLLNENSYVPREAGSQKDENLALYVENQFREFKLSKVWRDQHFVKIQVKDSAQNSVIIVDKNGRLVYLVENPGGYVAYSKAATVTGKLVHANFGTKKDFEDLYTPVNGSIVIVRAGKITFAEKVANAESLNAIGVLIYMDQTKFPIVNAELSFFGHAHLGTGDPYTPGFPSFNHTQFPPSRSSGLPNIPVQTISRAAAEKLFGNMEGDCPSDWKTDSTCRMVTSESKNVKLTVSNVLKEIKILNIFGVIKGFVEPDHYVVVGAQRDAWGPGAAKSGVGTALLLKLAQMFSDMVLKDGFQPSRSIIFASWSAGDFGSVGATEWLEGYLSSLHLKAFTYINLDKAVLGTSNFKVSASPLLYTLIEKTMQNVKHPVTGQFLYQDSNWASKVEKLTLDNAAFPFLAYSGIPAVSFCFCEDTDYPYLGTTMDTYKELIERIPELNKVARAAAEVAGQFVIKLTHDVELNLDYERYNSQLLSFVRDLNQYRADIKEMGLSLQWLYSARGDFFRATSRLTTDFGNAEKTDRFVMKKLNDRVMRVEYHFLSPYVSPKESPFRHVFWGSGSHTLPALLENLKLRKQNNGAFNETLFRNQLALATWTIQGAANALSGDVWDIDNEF

[3] = target: T3, mouse TfR ectodomain fused to a mouse IgG1 Fc fragment (mouse, UniProt Q62351 89-763); assay: SPR (Biacore T200)
T3 construct: extracellular domain; produced in-house; not shown: mouse IgG1 Fc fragment
T3 sequence (Q62351 89-763): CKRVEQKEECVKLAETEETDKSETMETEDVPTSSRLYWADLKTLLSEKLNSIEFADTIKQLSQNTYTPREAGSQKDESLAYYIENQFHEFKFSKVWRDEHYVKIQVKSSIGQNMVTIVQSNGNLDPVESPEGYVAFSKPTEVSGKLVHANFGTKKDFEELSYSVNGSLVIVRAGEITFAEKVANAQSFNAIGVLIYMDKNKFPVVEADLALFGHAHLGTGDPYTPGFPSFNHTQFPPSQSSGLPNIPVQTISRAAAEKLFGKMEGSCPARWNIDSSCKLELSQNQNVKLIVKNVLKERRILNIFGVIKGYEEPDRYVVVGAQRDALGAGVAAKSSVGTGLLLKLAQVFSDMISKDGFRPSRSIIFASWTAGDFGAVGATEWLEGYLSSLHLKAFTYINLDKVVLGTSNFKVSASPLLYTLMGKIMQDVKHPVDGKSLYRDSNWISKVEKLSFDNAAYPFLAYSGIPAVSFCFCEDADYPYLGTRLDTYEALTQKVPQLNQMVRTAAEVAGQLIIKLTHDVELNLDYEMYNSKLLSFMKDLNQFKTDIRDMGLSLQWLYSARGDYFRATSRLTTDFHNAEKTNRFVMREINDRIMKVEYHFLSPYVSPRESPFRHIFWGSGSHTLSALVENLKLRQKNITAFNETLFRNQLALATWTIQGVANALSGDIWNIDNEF

[4] = target: T4, rhesus monkey transferrin receptor fused to EGFP, expressed on CHO cells (rhesus monkey, UniProt H9EXL1 1-760); assay: flow cytometry, CHO-rhTfR-EGFP cells, apparent Kd
T4 construct: also called rhTfR; rhesus monkey TfR; not shown: EGFP fused to the cytoplasmic end of the receptor
T4 sequence (H9EXL1 entry or part of it limits assumed, form in doubt): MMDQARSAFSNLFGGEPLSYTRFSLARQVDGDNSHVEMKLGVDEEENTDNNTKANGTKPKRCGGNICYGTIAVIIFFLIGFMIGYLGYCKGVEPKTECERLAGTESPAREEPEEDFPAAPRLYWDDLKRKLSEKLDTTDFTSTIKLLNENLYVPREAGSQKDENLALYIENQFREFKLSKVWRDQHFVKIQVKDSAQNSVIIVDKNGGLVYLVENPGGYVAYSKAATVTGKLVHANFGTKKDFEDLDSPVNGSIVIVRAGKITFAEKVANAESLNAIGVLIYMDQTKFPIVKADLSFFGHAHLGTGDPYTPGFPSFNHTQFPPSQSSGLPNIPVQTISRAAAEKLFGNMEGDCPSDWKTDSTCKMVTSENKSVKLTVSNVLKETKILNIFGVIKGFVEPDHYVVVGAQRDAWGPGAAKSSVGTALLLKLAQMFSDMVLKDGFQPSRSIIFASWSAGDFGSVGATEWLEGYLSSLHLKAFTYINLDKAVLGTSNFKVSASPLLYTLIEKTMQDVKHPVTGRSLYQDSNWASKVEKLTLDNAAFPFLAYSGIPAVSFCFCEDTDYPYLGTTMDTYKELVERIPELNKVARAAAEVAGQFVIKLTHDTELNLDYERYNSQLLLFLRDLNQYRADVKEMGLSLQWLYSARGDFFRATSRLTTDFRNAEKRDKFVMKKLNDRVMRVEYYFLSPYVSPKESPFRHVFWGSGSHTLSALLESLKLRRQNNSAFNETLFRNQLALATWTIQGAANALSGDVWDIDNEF

[5] = target: T2, human transferrin receptor fused to …; assay: flow cytometry, CHO-hTfR-EGFP cells, apparent Kd
[6] = target: T1, mouse transferrin receptor fused to …; assay: flow cytometry, CHO-mTfR-EGFP cells, apparent Kd
[7] = target: T1, mouse transferrin receptor fused to …; assay: flow cytometry, CHO-mTfR-EGFP cells, apparent Kd; remark: listed apart in the source
[8] = target: murine TfR expressed by murine neuroblastoma Neuro-2a cells (mouse, UniProt Q62351 1-763); assay: cell-based or functional assay
Chain of murine TfR expressed by murine neuroblastoma Neuro-2a cells (Q62351 whole entry, the tested form may be a part): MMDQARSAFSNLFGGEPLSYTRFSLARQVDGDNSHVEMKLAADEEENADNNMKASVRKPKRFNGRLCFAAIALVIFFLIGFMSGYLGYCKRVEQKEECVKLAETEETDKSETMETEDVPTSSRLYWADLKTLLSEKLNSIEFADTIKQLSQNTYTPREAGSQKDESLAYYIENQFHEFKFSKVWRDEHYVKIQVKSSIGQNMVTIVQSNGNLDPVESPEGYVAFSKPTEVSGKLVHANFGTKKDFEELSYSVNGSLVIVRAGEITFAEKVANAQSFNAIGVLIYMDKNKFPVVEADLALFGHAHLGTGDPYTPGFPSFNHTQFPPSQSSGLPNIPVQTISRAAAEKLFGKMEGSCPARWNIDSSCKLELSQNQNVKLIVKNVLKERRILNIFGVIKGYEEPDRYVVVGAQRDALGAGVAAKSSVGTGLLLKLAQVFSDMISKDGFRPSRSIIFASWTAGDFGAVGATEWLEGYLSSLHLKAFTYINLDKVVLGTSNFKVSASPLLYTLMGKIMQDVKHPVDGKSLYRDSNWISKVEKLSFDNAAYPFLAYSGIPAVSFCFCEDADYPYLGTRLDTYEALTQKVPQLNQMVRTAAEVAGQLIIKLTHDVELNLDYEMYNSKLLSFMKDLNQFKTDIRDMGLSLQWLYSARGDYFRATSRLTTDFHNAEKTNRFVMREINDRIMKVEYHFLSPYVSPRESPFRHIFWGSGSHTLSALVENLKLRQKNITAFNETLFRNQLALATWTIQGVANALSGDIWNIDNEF

[9] = target: T2, human transferrin receptor fused to …; assay: cell-based or functional assay

T1 sequence (Q62351 whole entry, the tested form may be a part): as above

B1: VHH A17 (C5^V17) (VHH)
VHH: EVQLVESGGGVVQPGGSLKLSCVASGTDFSINFIRWYRQAPGKQREFVAGFTATGNTNYADSMKGRFTISRDNTKNAVYLQIDSLKPEDTAVYYCYMIDKWGQGTQVTVSS
Does B1 bind [1]?
Result: binds

Does B1 bind [2]?
Result: binds

B2: VHH A19 (C5^V19) (VHH)
VHH: EVQLVESGGGVVQPGGSLKLSCVASGTDFSINFIRWYRQAPGKQREFVAGFTATGNTNYADSMKGRFTISRDNTKNAVYLQIDSLKPEDTAVYYCYMLEKWGQGTQVTVSS
Does B2 bind [1]?
Result: binds

B3: VHH D (H3) (VHH)
VHH: EVQLVESGGGEVQPGGSLKLSCVASGTDFSINFVRWYRQRPGKQREWVAGFTANGDTNYPDSMKGRFTISRDNAKNTVYLQINSLKSEDTAVYYCYMLDNWGQGTQVTVSS
Which kon [3] does the source give for B3 here?
Its kon is 5.81e+06 M⁻¹ s⁻¹.

B4: E9 (VHH)
VHH: EVQLVESGGGLVQPGGSLRLSCVSSATFGGYSMGWFRQAPGKEREFVAAITWNGGIIKDYADGVMGRFTISRNSALNTVYLQMDSLKSTDTGVYVCAGDRTYYAGGYVPTSEREYAFWGQGTQVTVSS
Which results are given for B4?
Kd [4]: 1540 nM; Kd [5]: 1290 nM; Kd [6]: 1310 nM

B5: 13C3-LC-VHH A (bispecific antibody)
heavy: QVQLQQSGPELVRPGVSVKISCKGSGYTFTDYAMHWVKQSHAKSLEWIGVISTKYGKTNYNQKFKGKATMTVDKSSSTAYMELARLTSEDSAIYYCARGDDGYSWGQGTSVTVSSAKTTPPSVYPLAPGSAAQTNSMVTLGCLVKGYFPEPVTVTWNSGSLSSGVHTFPAVLQSDLYTLSSSVTVPSSTWPSETVTCNVAHPASSTKVDKKIVPRDCGCKPCICTVPEVSSVFIFPPKPKDVLTITLTPKVTCVVVDISKDDPEVQFSWFVDDVEVHTAQTQPREEQFNSTFRSVSELPIMHQDWLNGKEFKCRVNSAAFPAPIEKTISKTKGRPKAPQVYTIPPPKEQMAKDKVSLTCMITDFFPEDITVEWQWNGQPAENYKNTQPIMDTDGSYFVYSKLNVQKSNWEAGNTFTCSVLHEGLHNHHTEKSLSHSPG
light: DVVMTQTPLSLPVSLGDQASISCRSGQSLVHSNGNTYLHWYLQKPGQSPKLLIYTVSNRFSGVPDRFSGSGSGSDFTLKISRVEAEDLGVYFCSQNTFVPWTFGGGTKLEIKRADAAPTVSIFPPSSEQLTSGGASVVCFLNNFYPKDINVKWKIDGSERQNGVLNSWTDQDSKDSTYSMSSTLTLTKDEYERHNSYTCEATHKTSTSPIVKSFNRNECSGSGGGGGMAEVQLVESGGGVVQPGGSLKLSCVASGTDFSINFIRWYRQAPGKQREFVAGFTATGNTNYADSMKGRFTISRDNTKNAVYLQIDSLKPEDTAVYYCYMLDKWGQGTQVTVSSAAA
How did the Kd [7] turn out when B5 was run?
The Kd was 106 nM.

B6: B8^V9 (VHH)
VHH: EVQLVESGGGVVQPGGSLRLSCAASGEIFSINFMRWYRQAPGKQREWVAGFTRDGSKNYPDSAKGRFTISRDNAKNTVYLQIDSLKPEDTAVYYCYMLDTWGQGTQVTVSS
With B6 as the binder, how does the Kd [4] read?
The Kd was 24 nM.

B7: C5-siSOD1m-5'VP (other)
VHH: EVQLVESGGGVVQPGGSLKLSCVASGTDFSINFIRWYRQAPGKQREFVAGFTATGNTNYADSMKGRFTISRDNTKNAVYLQIDSLKPEDTAVYYCYMLDKWGQGTQVTVSSAAAEQKLISEEDLNGAAHHHHHHGS
modifications: siSOD1m-5'VP siRNA (SEQ ID NOs 465/466) linked by a stable linker to the tag
How did the “mean IC50 of mSOD1 mRNA downregulation, free uptake on Neuro-2a cells” value [8] turn out when B7 was run?
Its value is 7.4 nM.

B8: VHH A-siGFPst1 bioconjugate (other)
VHH: EVQLVESGGGVVQPGGSLKLSCVASGTDFSINFIRWYRQAPGKQREFVAGFTATGNTNYADSMKGRFTISRDNTKNAVYLQIDSLKPEDTAVYYCYMLDKWGQGTQVTVSSAAAEQKLISEEDLNGAAHHHHHHGS
modifications: siGFPst1 siRNA (3' end of sense strand, DBCO) clicked to 3-azido-1-propanamine on the Gln of the C-terminal Q-tag
For B8, which “IC50 of the reduction of GFP protein levels, 6-hour pulse and chase to 120 hrs” value [9] is on record?
Its value is 1.24 nM.

What about the “IC50 of the reduction of GFP protein levels, free uptake 120 hrs” value [9] of the same binder?
Its value is 2.73 nM.

B9: VHH A6 (C5^V6) (VHH)
VHH: EVQLVESGGGVVQPGGSLKLSCVASGTDFSINFIRWYRQAPGKQREFVAGFTATGNTNYADSMKGRFTISRDNTKNAVYLQIDSLKPEDTAVYYCYALDKWGQGTQVTVSS
Does B9 bind [1]?
Result: binds

Does B9 bind [2]?
Result: binds
